Measured values as given in patent US9889184B2 (priority 2008, dated 2018).
Positions count from the first letter of the chain named. No end group written: not given here.

Columns and labels:
Fusarium graminearum = assay type: cell-based; conditions: for fungicidal activity in combination with NaD1: F. graminearum, conditions of the fungal bioassay; for fungicidal activity of the proteinase inhibitor on its own: not combined with NaD1, F. graminearum; for effect on hyphal growth: concentrations up to 18.5 uM in the absence of NaD1
[1] = test system: Fusarium oxysporum f. sp. vasinfectum (Fov); assay: Growth inhibition of Fov by NaD1 (microtitre OD595); assay type: cell-based
Description: Lyophilized NaD1 (500 μg) was dissolved in 400 μL of stock buffer (200 mM Tris-HCl pH 8.0, 2 mM EDTA, 6 M guanidine-HCl, 0.02% [v/v] Tween-20). Reduction buffer (stock buffer with 15 mM dithiothreitol [DTT]) was added (44 μL) followed by a 4.5 h incubation at 40° C. The reaction mixture was cooled to RT before iodoacetic acid (0.5 M in 1 M NaOH, 55 μL) was added and the incubation continued in the dark for 30 min at RT. A Nanosep omega (Registered) spin column (3K molecular weight cut off, PALL Life Sciences) was used to remove salts, DTT and iodoacetic acid and the protein concentration was determined using the BCA protein assay (Pierce). The effect of reduced and alkylated NaD1 (NaD1R&A) on the growth of Fusarium oxysporum (Fov) was measured as described herein.
Antifungal activity against Fusarium oxysporum f. sp. vasinfectum (Fov, Australian isolate VCG01111 isolated from cotton; from Wayne O'Neill, Farming Systems Institute, DPI, Queensland, Australia), Thielaviopsis basicola (gift from David Nehl, NSW DPI, Narrabri, Australia), Verticillium dahliae (from Helen McFadden, CSIRO Plant Industry, Black Mountain, Australia), Leptosphaeria maculans (from Barbara Howlett, University of Melbourne, Victoria, Australia) and Aspergillus nidulans (from Michael Hynes, University of Melbourne) was assessed essentially as described in Broekaert et al, 1990. Spores were isolated from sporulating cultures growing in either half-strength potato dextrose broth (PDB) (Fov and T. basicola), Czapeck-Dox Broth (V. dahliae) (Difco Laboratories) or 10% (v/v) clarified V8 medium (L. maculans and A. nidulans) by filtration through sterile muslin. Spore concentrations were determined using a hemocytometer and adjusted to 5×10^4 spores/mL in the appropriate growth medium. Spore suspensions (80 μL) were added to the wells of sterile 96-well flat-bottomed microtitre plates along with 20 μL of filter-sterilized (0.22 μm syringe filter; Millipore) NaD1, or water to give final protein concentrations of 0-10 μM. The plates were shaken briefly and placed in the dark at 25° C. without shaking until the optical density at 595 nm of the water control reached approximately 0.2 (24-72 h depending on growth rate). Hyphal growth was estimated by measuring the optical density at 595 nm using a microtitre plate reader (SpectraMax Pro M2; Molecular Devices). Each test was performed in quadruplicate.

Fov hyphae = assay: Uptake of NaD1 into hyphae (immunogold EM, bimane fluorescence, immunoblot); assay type: cell-based, Fusarium oxysporum f. sp. vasinfectum; conditions: fluorescence microscopy, live hyphae
Description: Fov hyphae were grown as described above prior to the addition of NaD1 (10 μM final concentration) to 1 mL of the culture. Samples (100 μL) were collected after 0, 5, 10, 30, 60, 90 and 120 min. Hyphae were collected by centrifugation (10 min, 10,000×g) and the supernatant was stored at −20° C. for analysis. Hyphae were washed (2×10 min) with KCl (0.6 M) to remove any ionically bound protein before they were resuspended in 50 mM CAPS buffer (pH 10.0) containing 10 mM DTT for 20 min. Hyphae were collected by centrifugation and the supernatant, containing cell wall proteins, was collected for analysis. The pellet (containing cells) was resuspended in water and the cells were lysed using glass beads (Sigma, 60 mg) and vortexing (3×10 min). Cellular debris was removed by centrifugation (16,000×g, 10 min) and the supernatant collected for analysis. All samples were then analyzed by SDS-PAGE and immunoblotting.
Fov hyphae were grown for 18 h in half-strength PDB (5 mL) with vigorous shaking at 25° C. from a starting spore suspension of 5×10^4/mL. Hyphae were then treated with 2 μM NaD1 or an equivalent volume of water for 2 h at RT with gentle agitation, and were washed twice in 0.6 M KCl and three times in PBS before fixation in 4% (w/v) paraformaldehyde in PBS for 1 h at 4° C. Hyphae were again washed three times in PBS before dehydration in a standard ethanol series (15 min each, 50%, 70% and 90% ethanol, 3×15 min 100% ethanol). Hyphae were then infiltrated with LR White resin (ProSciTech) for 1 h at RT, followed by 18 h at 4° C., 1 h at RT and 24 h at 60° C. Fresh LR White resin was used at each step. Ultrathin sections were cut and placed on Formvar coated gold grids.
Grids were blocked with PBS containing 8% (w/v) BSA and 1% (v/v) Triton X-100 for 1 h and labeled with α-NaD1 antibodies (2 μg/mL in blocking buffer) for 1 h. Grids were washed in blocking buffer (3×10 min) and labeled with 15 nm gold particle labeled goat α-rabbit IgG antibodies (ProSciTech diluted 1 in 20 for 1 h. Grids were washed again in blocking solution (3×10 min) followed by water (15 min) before being air-dried. A JEOL JEM2010HC x e80 KV transmission electron microscope was used to examine labeled grids. Pictures were taken on Kodak EM film (ProSciTech) and developed in a dark room before scanning on a Hewlett Packard Scanjet 5P scanner.
Hyphae grown for 18 h as described were treated with NaD1-bimane (2 μM) for between 10 min and 6 h. Hyphae were then visualized by fluorescence microscopy using an MWU filter (excitation wavelength of 330-385 nm).

[2] = test system: Fusarium oxysporum species; conditions: cited from earlier work
papain = target: T1, papain (Carica papaya, UniProt P00784); assay: Cysteine proteinase inhibitory activity, ZFR-MCA substrate; assay type: biochemical; conditions: bacterially expressed cystatin, FIG. 1D
T1 construct: purchased Sigma
T1 sequence (P00784 134-345): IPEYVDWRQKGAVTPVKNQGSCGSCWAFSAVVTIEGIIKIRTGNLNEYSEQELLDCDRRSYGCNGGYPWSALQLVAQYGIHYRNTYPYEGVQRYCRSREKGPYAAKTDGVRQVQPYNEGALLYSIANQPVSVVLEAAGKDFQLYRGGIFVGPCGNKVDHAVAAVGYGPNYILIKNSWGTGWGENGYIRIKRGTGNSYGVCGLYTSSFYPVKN
Description: (§1) The cysteine proteinase inhibitory activity of bacterially expressed NaCys1, NaCys3 and NaCys4 was determined using the enzymes papain and cathepsin L (Sigma). The assay mixtures (final volume 250 uL) contained papain or cathepsin L (50 nM final concentration), 100 uL of ZFR-MCA substrate (0.2 mM, Bachem, Melo et al., 2001), 100 uL of reaction buffer (0.2 M sodium acetate, 4 mM EDTA, 8 mM DTT, pH 5.5) and 50 uL of cystatin (for 0-20 uM final concentration). Released fluorescence was measured at 460 nm (excitation at 340 nm) after a 10 or 50 min incubation for papain and cathepsin L, respectively, at 37° C.

cathepsin L = target: T2, cathepsin L (Homo sapiens, UniProt P07711); assay: as above; assay type: biochemical; conditions: bacterially expressed cystatin, FIG. 1E
T2 construct: purchased Sigma
T2 sequence (P07711 114-333, species assumed): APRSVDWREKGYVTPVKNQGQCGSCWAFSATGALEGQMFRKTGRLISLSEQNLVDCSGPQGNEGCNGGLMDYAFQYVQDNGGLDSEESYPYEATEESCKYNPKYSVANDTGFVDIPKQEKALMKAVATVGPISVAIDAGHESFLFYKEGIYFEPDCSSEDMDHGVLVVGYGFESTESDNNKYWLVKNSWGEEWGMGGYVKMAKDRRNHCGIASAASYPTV
Description: as §1

CC(C)C[C@H](NC(=O)[C@H]1O[C@@H]1C(=O)O)C(=O)NCCCCN=C(N)N [E64, reference compound]
fungicidal activity in combination with NaD1 (Fusarium graminearum): no fungicidal activity | fungicidal activity of the proteinase inhibitor on its own (Fusarium graminearum): no fungicidal activity

NaD1 labeled with FITC: NaD1 labeled with FITC via reactive amine groups (RECKTESNTFPGICITKPPCRKACISEKFTDGHCSKILRRCLCTKPC; ends and bridges not checked; also: FITC label via reactive amine groups (position not given here); UniProt Q8GTM0 26-72, looked up)
antifungal activity of fluorophore-labeled NaD1 [1]: not biologically active

NaD1-bimane: NaD1 labeled with the fluorophore bimane amine at carboxyl residues (RECKTESNTFPGICITKPPCRKACISEKFTDGHCSKILRRCLCTKPC; ends and bridges not checked; also: bimane amine fluorophore label at carboxyl residues (position not given here); UniProt Q8GTM0 26-72, looked up)
antifungal activity of fluorophore-labeled NaD1 [1]: retained full antifungal activity | time at which internalization was observed (Fov hyphae): 20 to 30 min

PhD1A: defensin isolated from petunia (Petunia hybrida) flowers (SEQ ID NO:24) (ATCKAECPTWDGICINKGPCVKCCKAQPEKFTDGHCSKILRRCLCTKPC; Petunia hybrida (PhD1A))
activity in inhibiting Fusarium oxysporum species [2]: active in inhibiting

Tomdef2: defensin isolated from tomato flowers (SEQ ID NO:22) (QQICKAPSQTFPGLCFMDSSCRKYCIKEKFTGGHCSKLQRKCLCTKPC; Solanum lycopersicum var. cerasiforme (Tomdef2))
activity in inhibiting Fusarium oxysporum species [2]: active in inhibiting

B1: NaCys1: cystatin from Nicotiana alata, bacterially expressed (SEQ ID NO:2) (protein)
chain: MATLGGIREAGGSENSLEINDLARFAVDEHNKKQNALLEFGKVVNVKEQVVAGTMYYITLEATEGGKKKAYEAKVWVKPWQNFKQLEDFKLIGDAASA
modifications: Nicotiana alata (NaCys1)
effect on hyphal growth (Fusarium graminearum): no effect on hyphal growth | inhibition of the cysteine proteinase papain (papain): strong inhibitors | inhibition of Cathepsin L (cathepsin L): better inhibitors of Cathepsin L than NaCys4

B2: NaCys3: cystatin from Nicotiana alata, bacterially expressed (SEQ ID NO:6) (protein)
chain: B1 chain with T3N
modifications: Nicotiana alata (NaCys3)
effect on hyphal growth (Fusarium graminearum): no effect on hyphal growth | inhibition of the cysteine proteinase papain (papain): strong inhibitors | inhibition of Cathepsin L (cathepsin L): better inhibitors of Cathepsin L than NaCys4

B3: NaCys4: cystatin from Nicotiana alata (SEQ ID NO:8), tryptophan to arginine substitution at position 80 (protein)
chain: B1 chain with T3N, W80R
modifications: Nicotiana alata (NaCys4)
inhibition of the cysteine proteinase papain (papain): relatively poor inhibitor

B4: Soybean trypsin inhibitor Type II-S: serine proteinase inhibitor (21 kDa), Sigma T9128 (protein, UniProt P01070 25-205, looked up)
Trypsin inhibitor A: DFVLDNEGNPLENGGTYYILSDITAFGGIRAAPTGNERCPLTVVQSRNELDKGIGTIISSPYRIRFIAEGHPLSLKFDSFAVIMLCVGIPTEWSVVEDLPEGPAVKIGENKDAMDGWFRLERVSDDEFNNYKLVFCPQQAEDDKCGDIGISIDHDDGTRRLVVSKNKPLVVQFQKLDKESL
fungicidal activity in combination with NaD1 (Fusarium graminearum): no fungicidal activity | fungicidal activity of the proteinase inhibitor on its own (Fusarium graminearum): no fungicidal activity

B5: chicken egg white cystatin: cysteine proteinase inhibitor (12.7 kDa), Sigma C8917 (protein, UniProt P01038 24-139, looked up)
Cystatin: SEDRSRLLGAPVPVDENDEGLQRALQFAMAEYNRASNDKYSSRVVRVISAKRQLVSGIKYILQVEIGRTTCPKSSGDLQSCEFHDEPEMAKYTTCTFVVYSIPWLNQIKLLESKCQ
fungicidal activity in combination with NaD1 (Fusarium graminearum): no fungicidal activity | fungicidal activity of the proteinase inhibitor on its own (Fusarium graminearum): no fungicidal activity

B6: PhD2: plant defensin from Petunia hybrida, accession Q8H6Q0 (protein)
chain: MARSICFFAVAILALMLFAAYETEAGTCKAECPTWEGICINKAPCVKCCKAQPEKFTDGHCSKILRRCLCTKPCATEEATATLANEVKTMAEALVEEDMME
modifications: Petunia hybrida (PhD2Full length)
activity in inhibiting Fusarium oxysporum species [2]: active in inhibiting
